{"source": "paper PMC11510292", "about": "“Heterobivalent Dual-Target Peptide for Integrin-αvβ3 and Neuropeptide Y Receptors on Breast Tumor” (Pharmaceuticals, 2024)", "key": {"[1]": {"assay": "Ex vivo biodistribution and blood clearance in healthy Balb/c mice", "conditions": "for tissue uptake at 5 min / tissue uptake at 0.5 h / tissue uptake at 1 h / tissue uptake at 2 h / tissue uptake at 4 h / tissue uptake at 6 h: mouse, 37 MBq, total radioactivity; for tissue uptake at 5 min: 5 min after IV injection; for tissue uptake at 0.5 h: 30 min after IV injection; for tissue uptake at 1 h: 1 h after IV injection; for tissue uptake at 2 h: 2 h after IV injection; for tissue uptake at 4 h: 4 h after IV injection; for tissue uptake at 6 h: 6 h after IV injection", "protocol": "The ex vivo biodistribution analysis performed with healthy Balb/c mice is presented in Figure 2 and Figure 3, and Table 1. Values are expressed as a percentage of injected activity per gram (%IA/g) of tissue and per milliliter (%IA/mL) of blood.\n(§1) […] Animals were deeply anesthetized and euthanized at the corresponding biodistribution time point. Blood, brain, spleen, heart, stomach, liver, lungs, kidneys, pancreas, muscle, bone, small intestine, and large intestine were collected and weighed. The radioactivity of each organ/tissue was then determined using the above-mentioned automatic gamma counter. The radioactivity was evaluated as the percentage of injected activity per gram of organ/tissue (%IA/g), using the same injected dose activity as a standard. Receptor-blocking studies in tumor models were also carried out by co-administration of 100 μg of cold-conjugated peptide along with radiopeptide."}, "[2]": {"assay": "Biodistribution in SCID mice bearing MCF-7 xenografts", "type": "in vivo", "conditions": "female, SCID, mouse, total radioactivity, MCF-7 model, 60 min p.i., 0.1 mL/18.5 MBq IV", "protocol": "To evaluate the uptake of the radiolabeled peptide by breast tumors, additional biodistribution studies were performed in SCID mice bearing MCF-7 and MDA-MB-231 xenografts (Table 2). […] The tumor uptakes of the radiolabeled conjugate were 9.30 ± 3.25% for MCF-7 and 4.93 ± 1.01% for MDA-MB-231 (Figure 5). The tumor-to-muscle ratios were 5.65 ± 0.94 for the MCF-7 model and 7.78 ± 3.20 for the MDA-MB-231 model (Figure 6).\nThe animals used in this experiment were provided by the Nuclear and Energy Research Institute (IPEN/CNEN-SP) vivarium. Every effort was made to minimize animal suffering per International Ethical Guidelines. The experimental protocols used in this study were approved by the Scientific Ethics Committee of the IPEN/CNEN-SP. Adult female SCID mice were maintained under controlled environmental conditions (12 h light-dark cycle; constant temperature 21 ± 2 °C), with free access to water and food. Suspensions of cells (5 × 10^6 in 0.1 mL) were subcutaneously injected into the upper back regions of the mice.\nas §1"}, "[3]": {"conditions": "bone, mean ± SD n = 5, read-out: Bone uptake"}, "[4]": {"conditions": "brain, mean ± SD n = 5, read-out: Brain uptake"}, "[5]": {"conditions": "heart, mean ± SD n = 5, read-out: Heart uptake"}, "[6]": {"conditions": "lung, mean ± SD n = 5, read-out: Lung uptake"}, "[7]": {"conditions": "muscle, mean ± SD n = 5, read-out: Muscle uptake"}, "[8]": {"conditions": "pancreas, mean ± SD n = 5, read-out: Pancreas uptake"}, "[9]": {"conditions": "spleen, mean ± SD n = 5, read-out: Spleen uptake"}, "[10]": {"conditions": "stomach, mean ± SD n = 5, read-out: Stomach uptake"}}, "note": "Like-named read-outs stand apart in the source and are kept apart here."}
{"molecule": "CCCC[C@H](NC(=O)[C@H](CCCNC(=N)N)NC(=O)[C@H](Cc1c[nH]c2ccccc12)NC(=O)[C@H](CSCC(=O)NCCCC[C@@H]1NC(=O)[C@@H](Cc2ccccc2)NC(=O)[C@H](CC(=O)O)NC(=O)CNC(=O)[C@H](CCCNC(=N)N)NC1=O)NC(=O)[C@@H]1CCCN1C(=O)[C@H](CC(N)=O)NC(=O)[C@@H](NC(=O)COCCOCCNC(=O)c1ccc(NN)nc1)[C@@H](C)CC)C(=O)N[C@@H](CCCNC(=N)N)C(=O)N[C@@H](Cc1ccc(O)cc1)C(N)=O", "note": "[[^99mTc]HYNIC-cRGDfk-NPY, metal not drawn]", "values": [{"measurement": "Blood half-life", "setting": "[1]; IV, 0.05 mL/18.5 MBq, exponential decay fit of %IA/mL", "value": 23.04, "unit": "min"}, {"measurement": "decrease in blood activity", "setting": "[1]; IV, within 1 h", "value": "approximately 90%"}, {"measurement": "crossing of blood-brain barrier", "setting": "[1]; from low brain uptake", "value": "did not cross the blood–brain barrier"}, {"measurement": "tissue uptake at 5 min", "setting": "[1]; [3]", "value": "3.19 ± 0.76", "unit": "%ID/g"}, {"measurement": "tissue uptake at 0.5 h", "setting": "[1]; [3]", "value": "3.71 ± 1.37", "unit": "%ID/g"}, {"measurement": "tissue uptake at 1 h", "setting": "[1]; [3]", "value": "2.52 ± 1.67", "unit": "%ID/g"}, {"measurement": "tissue uptake at 2 h", "setting": "[1]; [3]", "value": "0.71 ± 0.22", "unit": "%ID/g"}, {"measurement": "tissue uptake at 4 h", "setting": "[1]; [3]", "value": "0.46 ± 0.14", "unit": "%ID/g"}, {"measurement": "tissue uptake at 6 h", "setting": "[1]; [3]", "value": "0.54 ± 0.28", "unit": "%ID/g"}, {"measurement": "tissue uptake at 5 min", "setting": "[1]; [4]", "value": "0.37 ± 0.11", "unit": "%ID/g"}, {"measurement": "tissue uptake at 0.5 h", "setting": "[1]; [4]", "value": "0.22 ± 0.15", "unit": "%ID/g"}, {"measurement": "tissue uptake at 1 h", "setting": "[1]; [4]", "value": "0.12 ± 0.03", "unit": "%ID/g"}, {"measurement": "tissue uptake at 2 h", "setting": "[1]; [4]", "value": "0.07 ± 0.01", "unit": "%ID/g"}, {"measurement": "tissue uptake at 4 h", "setting": "[1]; [4]", "value": "0.04 ± 0.01", "unit": "%ID/g"}, {"measurement": "tissue uptake at 6 h", "setting": "[1]; [4]", "value": "0.04 ± 0.01", "unit": "%ID/g"}, {"measurement": "tissue uptake at 5 min", "setting": "[1]; [5]", "value": "4.3 ± 1.32", "unit": "%ID/g"}, {"measurement": "tissue uptake at 0.5 h", "setting": "[1]; [5]", "value": "3.21 ± 1.22", "unit": "%ID/g"}, {"measurement": "tissue uptake at 1 h", "setting": "[1]; [5]", "value": "1.04 ± 0.23", "unit": "%ID/g"}, {"measurement": "tissue uptake at 2 h", "setting": "[1]; [5]", "value": "0.55 ± 0.07", "unit": "%ID/g"}, {"measurement": "tissue uptake at 4 h", "setting": "[1]; [5]", "value": "0.35 ± 0.12", "unit": "%ID/g"}, {"measurement": "tissue uptake at 6 h", "setting": "[1]; [5]", "value": "0.33 ± 0.09", "unit": "%ID/g"}, {"measurement": "tissue uptake at 5 min", "setting": "[1]; [6]", "value": "9.8 ± 3.16", "unit": "%ID/g"}, {"measurement": "tissue uptake at 0.5 h", "setting": "[1]; [6]", "value": "4.8 ± 2.67", "unit": "%ID/g"}, {"measurement": "tissue uptake at 1 h", "setting": "[1]; [6]", "value": "2.64 ± 0.83", "unit": "%ID/g"}, {"measurement": "tissue uptake at 2 h", "setting": "[1]; [6]", "value": "1.17 ± 0.2", "unit": "%ID/g"}, {"measurement": "tissue uptake at 4 h", "setting": "[1]; [6]", "value": "0.63 ± 0.17", "unit": "%ID/g"}, {"measurement": "tissue uptake at 6 h", "setting": "[1]; [6]", "value": "1.65 ± 2.02", "unit": "%ID/g"}, {"measurement": "tissue uptake at 5 min", "setting": "[1]; [7]", "value": "2.16 ± 0.62", "unit": "%ID/g"}, {"measurement": "tissue uptake at 0.5 h", "setting": "[1]; [7]", "value": "1.5 ± 0.41", "unit": "%ID/g"}, {"measurement": "tissue uptake at 1 h", "setting": "[1]; [7]", "value": "0.68 ± 0.33", "unit": "%ID/g"}, {"measurement": "tissue uptake at 2 h", "setting": "[1]; [7]", "value": "0.39 ± 0.09", "unit": "%ID/g"}, {"measurement": "tissue uptake at 4 h", "setting": "[1]; [7]", "value": "0.22 ± 0.07", "unit": "%ID/g"}, {"measurement": "tissue uptake at 6 h", "setting": "[1]; [7]", "value": "0.21 ± 0.03", "unit": "%ID/g"}, {"measurement": "tissue uptake at 5 min", "setting": "[1]; [8]", "value": "3.39 ± 0.92", "unit": "%ID/g"}, {"measurement": "tissue uptake at 0.5 h", "setting": "[1]; [8]", "value": "2.52 ± 0.89", "unit": "%ID/g"}, {"measurement": "tissue uptake at 1 h", "setting": "[1]; [8]", "value": "1.17 ± 0.45", "unit": "%ID/g"}, {"measurement": "tissue uptake at 2 h", "setting": "[1]; [8]", "value": "0.53 ± 0.1", "unit": "%ID/g"}, {"measurement": "tissue uptake at 4 h", "setting": "[1]; [8]", "value": "0.35 ± 0.12", "unit": "%ID/g"}, {"measurement": "tissue uptake at 6 h", "setting": "[1]; [8]", "value": "0.34 ± 0.11", "unit": "%ID/g"}, {"measurement": "tissue uptake at 5 min", "setting": "[1]; [9]", "value": "6.06 ± 2.9", "unit": "%ID/g"}, {"measurement": "tissue uptake at 0.5 h", "setting": "[1]; [9]", "value": "6.14 ± 2.29", "unit": "%ID/g"}, {"measurement": "tissue uptake at 1 h", "setting": "[1]; [9]", "value": "3.41 ± 1.17", "unit": "%ID/g"}, {"measurement": "tissue uptake at 2 h", "setting": "[1]; [9]", "value": "2.22 ± 0.37", "unit": "%ID/g"}, {"measurement": "tissue uptake at 4 h", "setting": "[1]; [9]", "value": "1.69 ± 0.34", "unit": "%ID/g"}, {"measurement": "tissue uptake at 6 h", "setting": "[1]; [9]", "value": "1.98 ± 0.63", "unit": "%ID/g"}, {"measurement": "tissue uptake at 5 min", "setting": "[1]; [10]", "value": "8.05 ± 2.56", "unit": "%ID/g"}, {"measurement": "tissue uptake at 0.5 h", "setting": "[1]; [10]", "value": "7.17 ± 1.38", "unit": "%ID/g"}, {"measurement": "tissue uptake at 1 h", "setting": "[1]; [10]", "value": "3.97 ± 0.78", "unit": "%ID/g"}, {"measurement": "tissue uptake at 2 h", "setting": "[1]; [10]", "value": "2.62 ± 0.68", "unit": "%ID/g"}, {"measurement": "tissue uptake at 4 h", "setting": "[1]; [10]", "value": "1.81 ± 0.5", "unit": "%ID/g"}, {"measurement": "tissue uptake at 6 h", "setting": "[1]; [10]", "value": "1.79 ± 0.58", "unit": "%ID/g"}, {"measurement": "tissue uptake at 1 h", "setting": "[2]; bone, Block with excess cold peptide, n = 3, read-out: Bone uptake", "value": "1.08 ± 0.77", "unit": "%ID/g"}, {"measurement": "tissue uptake at 1 h", "setting": "[2]; bone, Non-Block, n = 5, read-out: Bone uptake", "value": "1.4 ± 0.72", "unit": "%ID/g"}, {"measurement": "tissue uptake at 1 h", "setting": "[2]; brain, Block with excess cold peptide, n = 3, read-out: Brain uptake", "value": "0.08 ± 0.01", "unit": "%ID/g"}]}
